# Reference: the supplement of paper PMC9170038
# Test system: MS2 coat protein
# Assay: apparent KD of MS2 coat protein; designed switch direction (-1 OFF switch, 1 ON switch): 1; higher = weaker reporter binding
# How it was run: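 An oligonucleotide input, 200 uM small-molecule ligand, or no input was present during titration of SNAP-549-labelled MS2 coat protein, which was doubled from 0.7 or 1.5 nM to 3 µM. Designed RNA switches had been transcribed on Illumina chips by stalled E. coli RNA polymerase. Apparent KD per design is the median over clusters of curves fitted to normalised cluster fluorescence.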
# [1] = input ligand: microRNA oligo, concentration not stated
# [2] = Eterna round: R95, input ligand: FMN 200 uM
# [3] = Eterna round: R95, input ligand: microRNA oligo, concentration not stated
# [4] = Eterna round: R95, input ligand: none
Sequence,apparent KD of MS2 coat protein (input ligand: FMN 200 uM) [nM],apparent KD of MS2 coat protein [1] [nM],apparent KD of MS2 coat protein (input ligand: none) [nM],apparent KD of MS2 coat protein [2] [nM],apparent KD of MS2 coat protein [3] [nM],apparent KD of MS2 coat protein [4] [nM]
"GCUGCAAUAAACGCCUACAUGAGGAUCACCCAUGUAUGUAGGCAGGAUAUCGUAUGCAAAGCAUACGAGAAGGGCUGUAGUAGC [Mat - Same State NG 3 - JL Mod - D39] (Eterna round: R96, puzzle: Same State NG 3)",65.3,97.3,112,–,–,–
"GCUGCAUGGGCAGGAUAUGGGUCCAAAGCGCAAGUGCGCUUUGGUACAUGAGGAUCACCCAUGUCCCAGAAGGGCCCAAGCGGC [Inorgeesbi] (Eterna round: R96, puzzle: Same State NG 2)",16.4,87.9,145,–,–,–
"GCUGCGUUUAACGCCUACAUGAGGAUCACCCAUGUAUGUAGGCAGGAUAUCGUUUGCUUUGCAAACGAGAAGGGCUGUAGUAGC [salish99_SSNG3_R04_005] (Eterna round: R96, puzzle: Same State NG 3)",41.6,85,73.8,–,–,–
"GCUGGAAACCACAUGAGGAUCACCCAUGUUCCGGAAACGGCACAGGAUAUCUGUCCGAAAAGGUCAGAGAAGGGUGGAACCAGC [Fiskers NG3ss - 82] (Eterna round: R96, puzzle: Same State NG 3)",221,350,393,–,–,–
"GCUGGAACUCACAUGAGGAUCACCCAUGUUCCGGAAACGGCACAGGAUAUCUGUCCGAAAAGGUCAGAGAAGGGUGUAACCAGC [Fiskers NG3ss - 87] (Eterna round: R96, puzzle: Same State NG 3)",137,51,88.8,–,–,–
"GGAAACAAGAGAGGAUAUGCAGAGGAUCACCCUGUAGAAGGCUCCCUAGAGAGGAUAUGCAGAGGAUCACCCUGCAGAAGGCUC [pwkr ssNG DX.18] (Eterna round: R96, puzzle: Same State NG 1)",227,27.7,89.1,–,–,–
"GGAGAACAUGAGGAUCACCCAUGUGGAUGGGCGCUAGGAUAUGCGAGAGGGUGAAGAGAAGCAGAAGGAGUGGAUA [JR_SS1_Sub036] (Eterna round: R96, puzzle: Same State 1)",130,96.6,147,–,–,–
GGAGAACAUGAGGAUCACCCAUGUGGAUGGGCGCUAGGAUAUGCGAGAGGGUGAAGAGAAGCAGAAGGAGUGGAUA [JR_SS1_Sub036] (puzzle: Same State 1),–,–,–,101,104,161
"GGAGCCGGCACCGAGGAUAUUCAUAUUAAAACAUGAGGAUCACCCAUGUAGGCCAGAAGGCUUUGGGAGAAGGCGGAUCGGCUCG [Xeonanis - 3] (Eterna round: R96, puzzle: Same State 2)",22.1,148,568,–,–,–
GGAGCCGGCACCGAGGAUAUUCAUAUUAAAACAUGAGGAUCACCCAUGUAGGCCAGAAGGCUUUGGGAGAAGGCGGAUCGGCUCG [Xeonanis - 3] (puzzle: Same State 2),–,–,–,25.3,310,546
"GGAGCCGGCCUAGGAUAUUUCAUAAUUUAACAUGAGGAUCACCCAUGUAGGCCAGAAGGCCUUGGGAAGAAGGAGGUCGGCUCC [Loop Effect - U26,U27,U28] (Eterna round: R96, puzzle: Same State NG 2)",17.4,53.6,76.9,–,–,–
"GGAGCCGGCCUAGGAUAUUUCAUUAUUAAACAUGAGGAUCACCCAUGUAGGCCAGAAGGCCUUGGGAAGAAGGAGGUCGGCUCC [Loop Effect - U24,U26,U28] (Eterna round: R96, puzzle: Same State NG 2)",17.1,49.6,68.5,–,–,–
"GGCAAUAUCACAGGAUAUUGGAAAGGAAGUGUACAAGAAGGGUGAUAGUGCCUCAGCAACAUGAGGAUCACCCAUGUACUGAGC [PowerStrip SSNG 1.29] (Eterna round: R96, puzzle: Same State NG 1)",121,43.6,113,–,–,–
"GGCAGUCCGACACAGGAUAUGGGUAACGAAACAUGAGGAUCACCCAUGUGGAAACAUCGGGUUGCCUAGAAGGGUGGAAAGAUUG [Xeti] (Eterna round: R96, puzzle: Same State 2)",32.4,71.6,124,–,–,–
"GGCUAGGAUAUCUGCAGGAUCACCGCGGAGAAGGAGCUAAGCUAGGAUAUCCGCAGGAUCACCGCGGAGAAGGAGCAUAAUAUA [pwkr ssNG3 DX 2xF5 +2xFMN.15] (Eterna round: R96, puzzle: Same State NG 3)",81.5,20.3,18.1,–,–,–
"GGCUAGGAUAUCUGCAGGAUCACCGCGGAGAAGGAGCUAAGCUAGGAUAUCCGCAGGAUCACCGCGGAGAAGGAGCAUCAUCUC [pwkr ssNG3 DX 2xF5 +2xFMN.16] (Eterna round: R96, puzzle: Same State NG 3)",135,123,429,–,–,–
"GGUACUAUCACAGGAUAUGCUAUCCUUUGGGUAGCAGAAGGGUGGUACAUGAGGAUCACCCAUGUGGUGCCAGGGCGUGAGCCC [JL SSNG1 1.97] (Eterna round: R96, puzzle: Same State NG 1)",200,67.9,318,–,–,–
"GGUAGGUUACUACCAAACAUGAGGAUCACCCAUGUUAAUGGGAAGGAUAUGGUACCUAUUUGGUACCAGAAGGUCCAAAUAAUU [Mat - Same State NG 3 - JL Mod - D97] (Eterna round: R96, puzzle: Same State NG 3)",73.2,261,596,–,–,–
"GGUAGGUUACUACCAAACAUGAGGAUCACCCAUGUUGAUGGGAAGGAUAUGGUACCUUUUAGGUACCAGAAGGUCUAAUCGAUC [NGss mod of JL's mod of Fisker 4] (Eterna round: R96, puzzle: Same State NG 3)",120,115,166,–,–,–
"GGUAGGUUACUACCAAACUACAUGAGGAUCACCCAUGUGUGGGAGGAUAUGGUACCUAUUUGGUACCAGAAGGUCCAAUUAAUU [Fiskers NG3ss - 6] (Eterna round: R96, puzzle: Same State NG 3)",108,106,124,–,–,–
"GGUAGGUUACUACCAGACAUGAGGAUCACCCAUGUAAGUGGGAAGGAUAUGGUACCGUUUCGGUACCAGAAGGUCCUAUGUAAG [JL SSNG3 1.45] (Eterna round: R96, puzzle: Same State NG 3)",269,88.7,936,–,–,–
GGUAUACAUGAGGAUCACCCAUGUCGUAUGACAUGAGGAUAUGUACAGACUUCGGUCUGUACAGAAGGCGUGUGUC [SS1 - 1011 Omei Mod 6] (puzzle: Same State 1),–,–,–,–,307,–
"GGUAUCAGCACAGGAUAUGCUAUCCUUUGGGUAGCAGAAGGGUGGACAUGAGGAUCACCCAUGUGGGUGCCAGGGCGUGAGCCC [JL SSNG1 1.86] (Eterna round: R96, puzzle: Same State NG 1)",426,75.9,323,–,–,–
"GGUAUCAUCACAGGAUAUGCUAUCCUUUGGGUAGCAGAAGGGUGGAACAUGAGGAUCACCCAUGUGGUGCCAGGGCGUGAGCCC [JL SSNG1 1.89] (Eterna round: R96, puzzle: Same State NG 1)",177,583,1880,–,–,–
"GGUAUGGACACAGGAUAUGCUAUCCUUUGGGUAGCAGAAGGGUGAACAUGAGGAUCACCCAUGUACGUGCCAGGGCGUGAGCCC [JL SSNG1 1.78] (Eterna round: R96, puzzle: Same State NG 1)",913,278,1620,–,–,–
"GGUAUUAACACAGGAUAUGCUUACGAAACGUAAGCAGAAGGGUGGACAUGAGGAUCACCCAUGUUUGUACCAGGGCGUGAGCCC [JL SSNG1 1.71] (Eterna round: R96, puzzle: Same State NG 1)",68.5,271,652,–,–,–
GGUCCAGCCUGAGCUGGACAAAAGCAUGUACAUGAGGAUCACCCAUGUUCAUGUACAAGCUUUUUGCUCGUCUUAUA [salish99_208a_r3_045] (puzzle: Sensor for hsa-mir-208a),–,–,–,542,15.4,696
GGUCCAGCCUGAGCUGGACAAAAGCAUGUACAUGAGGAUCACCCAUGUUCAUGUACAAGCUUUUUGCUCGUCUUAUG [salish99_208a_r3_053] (puzzle: Sensor for hsa-mir-208a),–,–,–,693,18.1,785
GGUCCAGCCUGAGCUGGACUAUAGUAUGUACAUGAGGAUCACCCAUGUCAUGUAUAAGUAUGUUGUUUGUCUUGAAA [Sensorship 4 - Jieux - Sensor for hsa-mir-208a] (puzzle: Sensor for hsa-mir-208a),–,–,–,23.6,20.1,24.2
"GGUCCAUCAUGAGGAUAUGGCACCUUAUUGGUGCCAGAAGGCAUGUCUAUAGACAUGAGGAUCACCCAUGUAAUAAAUUGGACC [Eli NG1ss - 93] (Eterna round: R96, puzzle: Same State NG 1)",30.2,344,831,–,–,–
